Key:
[1] = biological target: T1, human SIRPα v1 ECD recombinant protein (human, UniProt P78324 31-373); assay: competitive ELISA, plate-coated human SIRPα v1 ECD; blocked ligand: mFc tagged human CD47 ECD
T1 construct: extracellular domain; Coated on the ELISA plate
Method: Competitive ELISA assay was used to determine whether the purified chimeric antibodies can block CD47 and SIRPα interaction. Briefly, antibody and mFc tagged human CD47 ECD recombinant protein were co-incubated with ELISA microplate coated human SIRPα v1 ECD recombinant protein. After washing, HRP labeled anti-mouse Fc 2nd antibody (Sigma) was added and incubated at 37° C. for 1 hour. Then, 100 μl/well of TMB solution (Biotechnology) was added. After incubation for 15 minutes at room temperature, the reaction was stopped by the addition of 50 μl of 1N HCl. OD 450 nm was read. Blocking ratio was determined by blockade of human SIRPα ECD recombinant protein binding to ELISA microplate coated human CD47 ECD recombinant protein.

[2] = biological target: T2, human PDL1 on cells (human, UniProt Q9NZQ7 19-290); assay: cell-based or functional assay
[3] = biological target: human PDL1 protein (Octet assay) (human, UniProt Q9NZQ7 19-238); assay: Octet; antibody on sensor, PDL1 protein in solution
Method: The Anti-PDL1/SIRPα bispecific protein were characterized for binding affinity against human PDL1 using Octet assay (ForeBio) according to manufacturer's manual, separately. Briefly, the antibodies were coupled on sensors and then the sensors were dipped into PDL1 protein gradients (start at 200 nM, with 2-fold dilution and totally 8 doses). Their binding responses were measured in real-time and results were fit globally.

[4] = biological target: T2, human PDL1 on cells; assay: FACS, Raji cells overexpressing human PDL1, anti-human Fc-PE, MFI
Method: Approximately 100,000 Raji cells overexpressing human PDL1 were washed with wash buffer and incubated with 100 ul serial dilution of PDL1/SIRPα bispecific protein for 30 minutes on ice. Cells were then washed twice with wash buffer and incubated with 100 ul of anti-human Fc-PE for 30 minutes on ice. Cells were then washed twice with wash buffer and analyzed on a FACS Canto II analyzer (BD Biosciences). […] The bispecific antibodies ES019-025, ES019-026 bound Raji/hPDL1 similar to anti-PDL1 monoclonal antibody C71 whereas ES019-020, ES019-024 bound Raji/hPDL1 to a lesser extent relative to anti-PDL1, C71.

Sequence of human PDL1 protein (Octet assay) (Q9NZQ7 19-238 limits assumed): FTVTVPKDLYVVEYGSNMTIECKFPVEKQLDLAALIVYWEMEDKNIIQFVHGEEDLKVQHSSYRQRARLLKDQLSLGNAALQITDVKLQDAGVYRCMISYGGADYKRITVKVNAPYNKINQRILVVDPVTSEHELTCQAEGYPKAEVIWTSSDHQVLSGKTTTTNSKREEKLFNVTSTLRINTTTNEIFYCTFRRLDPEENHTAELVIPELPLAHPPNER
T2 sequence (Q9NZQ7 19-290): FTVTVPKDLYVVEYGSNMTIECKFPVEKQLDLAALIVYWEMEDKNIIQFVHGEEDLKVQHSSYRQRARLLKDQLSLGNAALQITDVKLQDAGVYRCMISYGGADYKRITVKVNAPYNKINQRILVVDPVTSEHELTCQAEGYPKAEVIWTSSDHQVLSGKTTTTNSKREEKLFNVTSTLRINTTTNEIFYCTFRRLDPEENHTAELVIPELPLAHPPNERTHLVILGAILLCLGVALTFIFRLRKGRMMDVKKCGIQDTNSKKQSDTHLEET
T1 sequence (P78324 31-373): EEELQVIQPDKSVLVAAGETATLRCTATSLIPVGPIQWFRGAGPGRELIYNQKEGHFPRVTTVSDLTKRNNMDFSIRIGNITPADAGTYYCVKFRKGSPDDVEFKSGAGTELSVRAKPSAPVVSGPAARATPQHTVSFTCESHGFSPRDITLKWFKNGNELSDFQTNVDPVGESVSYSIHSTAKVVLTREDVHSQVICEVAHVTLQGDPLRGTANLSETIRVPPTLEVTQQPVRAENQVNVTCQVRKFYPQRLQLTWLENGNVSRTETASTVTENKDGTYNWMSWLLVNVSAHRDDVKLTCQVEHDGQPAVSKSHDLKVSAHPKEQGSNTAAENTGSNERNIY

IC50 (read off the curve) [1]	EC50 (read off the curve) [2]	Kd [3]	koff [3]	kon [3]	EC50 (read off the curve) [4]	Binder
~2 nM	–	–	–	–	–	Anti-SIRPα antibody C35 (antibody, V domains shown, Tested as purified chimeric antibody; also called 035) VH: QIQLVQSGPELRKPGETVKISCKASGYSFTNYAMNWVKQAPGKVLKWMGFINTYTGEPTYADDFKGRFAFSLETSASTAYLQINNLKNEDTATYFCTRTRGYYDFDGGAFDYWGQGTSLTVSS VL: DIVMTQSQKFMSTSIGDRVSVTCKASQNVGTHLAWYQQKPGQSPKALIFSASYRYIGVPDRFTGSGSGTDFTLTITNVQSEDLAEYFCQQYNTYPLTFGAGTKLELK
–	~3 nM	5.54 nM	0.00509 s⁻¹	918000 M⁻¹ s⁻¹	~0.6 nM	Anti-PDL1/SIRPα bispecific antibody ES019-020 (bispecific antibody, not shown: small tags and cut ends; a dimerising Fc or GST) light (part 1 of 2): QIVLTQSPAIMSASPGEKVTLTCSASSSVSSSYLYWYQQKPGSSPKLWIYSTSNLASGVPARFSGSGSGTSYSLTISSMEAEDAASYFCHQWSSYPYTFGGGTKLEIK light (part 2 of 2): EVQVVESGGGLVQSGGSLKLSCAGSGFTESAGFMVWHRQVPGKERELVALIATPSGSTNYADSVKGRFTISRDNGKNTVYLQMNSLKPEDTAVYYCNIRGYWGQGTLVTVSS heavy: EVQLQQSGAELVKPGASVKLSCTASGFNIKDYYMHWVKQRTEQGLEWIGRIDPEDGETKYAPKFQGKATITADTSSNTAYLQLSSLTSEDTAVYYCDRGLAYWGQGTLVTVSA
–	~2 nM	6.56 nM	0.00603 s⁻¹	920000 M⁻¹ s⁻¹	~0.6 nM	Anti-PDL1/SIRPα bispecific antibody ES019-024 (bispecific antibody, not shown: a dimerising Fc or GST) light: QIVLTQSPAIMSASPGEKVTLTCSASSSVSSSYLYWYQQKPGSSPKLWIYSTSNLASGVPARFSGSGSGTSYSLTISSMEAEDAASYFCHQWSSYPYTFGGGTKLEIK heavy (part 1 of 2): EVQLQQSGAELVKPGASVKLSCTASGFNIKDYYMHWVKQRTEQGLEWIGRIDPEDGETKYAPKFQGKATITADTSSNTAYLQLSSLTSEDTAVYYCDRGLAYWGQGTLVTVSA heavy (part 2 of 2): EVQVVESGGGLVQSGGSLKLSCAGSGFTESAGFMVWHRQVPGKERELVALIATPSGSTNYADSVKGRFTISRDNGKNTVYLQMNSLKPEDTAVYYCNIRGYWGQGTLVTVSS

From patent US20240336686A1 (ELPISCIENCE SUZHOU BIOPHARMA, published 2024)
